Source: patent US20200392228A1 (PANDION OPERATIONS, published 2020)

T1: CD25 (Homo sapiens (Human), UniProt P01589 22-240)
T1 construct: also called IL-2R alpha chain
T1 sequence: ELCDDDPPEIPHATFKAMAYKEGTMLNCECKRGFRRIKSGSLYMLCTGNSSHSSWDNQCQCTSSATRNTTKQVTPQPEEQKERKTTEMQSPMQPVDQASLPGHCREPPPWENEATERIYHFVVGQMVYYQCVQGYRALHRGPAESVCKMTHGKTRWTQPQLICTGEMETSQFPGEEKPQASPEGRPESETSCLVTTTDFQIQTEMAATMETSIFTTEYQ


Target: T1, CD25
Assay: ELISA, plate-bound CD25
Method: An immunosorbent plate was coated with CD25 at a concentration of 0.5 μg/mL in PBS pH 7.4, 75 ul/well, and incubated overnight at 4° C. Wells were washed with PBS pH 7.4 containing 0.05% Tween-20 (wash buffer) three times, and then blocked with 200 ul/well 1% BSA in PBS pH 7.4 (block buffer) for two hours at room temperature. After three washes with wash buffer IL-2M molecules of Example 12 were diluted to eleven—two fold serial dilution in PBS containing 1% BSA and 0.05% Tween-20 (assay buffer) with 2 nM being the highest concentration. The diluted material was added to the CD25 coated plate at 75 ul/well for 1 hour at room temperature. After three washes with wash buffer, a goat biotinylated anti-IL-2 polyclonal antibody, diluted to 0.05 μg/mL in assay buffer, was added to the plate at 75 ul/well for 1 hr at room temperature. After three washes with wash buffer high sensitivity streptavidin HRP diluted in assay buffer at 1:5000 was added to the plate at 75 ul/well for 15 minutes at room temperature. After three washes with wash buffer and 1 wash with wash buffer (with no tween-20), the assay was developed with TMB, and stopped with 1N HCL. OD 450 nm was measured. The experiment included appropriate controls for non-specific binding of IL-2M molecules to the plate/block in the absence of CD25 and a negative control molecule that is unable to bind CD25.

EC50 [nM] | Binder
< 1 | IL-2M SEQ ID NO: 55 (Fc fusion, also called IL-2 L80I N88D V69A, C125S Q74P-G4Sx4-Fc) APTSSSTKKTQLQLEHLLLDLQMILNGINNYKNPKLTRMLTFKFYMPKKATELKHLQCLEEELKPLEEALNLAPSKNFHIRPRDLISDINVIVLELKGSETTFMCEYADETATIVEFLNRWITFSQSIISTLTGGGGSGGGGSGGGGSGGGGSDKTHTCPPCPAPEAAGAPSVFLFPPKPKDTLMISRTPEVTCVVVDVSHEDPEVKFNWYVDGVEVHNAKTKPREEQYNSTYRVVSVLTVLHQDWLNGKEYKCKVSNKALPAPIEKTISKAKGQPREPQVYTLPPSREEMTKNQVSLTCLVKGFYPSDIAVEWESNGQPENNYKTTPPVLDSDGSFFLYSKLTVDKSRWQQGNVFSCSVMHEALHNHYTQKSLSLSPG
< 1 | IL-2M SEQ ID NO: 56 (Fc fusion, also called IL-2 L118I N88D V69A, Q74P, C125S-G4Sx4-Fc) APTSSSTKKTQLQLEHLLLDLQMILNGINNYKNPKLTRMLTFKFYMPKKATELKHLQCLEEELKPLEEALNLAPSKNFHLRPRDLISDINVIVLELKGSETTFMCEYADETATIVEFINRWITFSQSIISTLTGGGGSGGGGSGGGGSGGGGSDKTHTCPPCPAPEAAGAPSVFLFPPKPKDTLMISRTPEVTCVVVDVSHEDPEVKFNWYVDGVEVHNAKTKPREEQYNSTYRVVSVLTVLHQDWLNGKEYKCKVSNKALPAPIEKTISKAKGQPREPQVYTLPPSREEMTKNQVSLTCLVKGFYPSDIAVEWESNGQPENNYKTTPPVLDSDGSFFLYSKLTVDKSRWQQGNVFSCSVMHEALHNHYTQKSLSLSPG
